As a reminder, the IC50 is the concentration at which inhibition is half-maximal. A low value points to greater potency. Usually EC50 stands for the concentration giving half of the maximal effect. A higher EC50 goes with lower potency in that assay. Broadly, the Kd is the concentration at which binding is half-saturated. By koff is commonly meant a measure of how fast the partners let go of each other. A lower koff goes with slow dissociation. What is called kon is the rate constant with which the complex forms.

In experiment [1] the target is T1, human Tim-3-Fc (R&D Systems) (human, UniProt Q8TDQ0 22-130, biotinylated in the phosphatidylserine assay; ruthenylated (sulfo-tag NHS-ester) in the galectin-9 assay).
T1 construct: Bought protein; Supplier is not repeated for the CEACAM1 assay; also called hTIM-3-Fc; hTIM-3-Fc Biotin; not shown: Fc part of the bought fusion protein
T1 sequence: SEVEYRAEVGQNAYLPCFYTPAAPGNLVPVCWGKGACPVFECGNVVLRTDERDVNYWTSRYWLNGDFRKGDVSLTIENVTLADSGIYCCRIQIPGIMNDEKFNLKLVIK
As to the kind of experiment: MSD plate competition assay, ruthenylated hTim-3-Fc binding to coated galectin-9-biotin; competitor galectin-9.

Experiment [2] has as its target T2, cell surface human Tim-3 on Tim-3 DO11.10 cells (human, UniProt Q8TDQ0 22-301).
T2 construct: whole, on cells; Also used as the target for the mixed lymphocyte reaction rows, where Tim-3 is on primary human cells; also called Tim-3 D011.10 cells
T2 sequence (looked up): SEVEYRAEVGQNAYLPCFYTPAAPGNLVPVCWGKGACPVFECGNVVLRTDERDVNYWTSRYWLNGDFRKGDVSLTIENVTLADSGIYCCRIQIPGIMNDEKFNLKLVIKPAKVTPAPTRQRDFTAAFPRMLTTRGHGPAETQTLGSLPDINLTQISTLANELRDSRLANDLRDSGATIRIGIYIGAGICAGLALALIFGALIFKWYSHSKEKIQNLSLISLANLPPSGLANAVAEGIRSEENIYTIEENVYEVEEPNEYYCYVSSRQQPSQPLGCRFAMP
As to the kind of experiment: flow cytometry, A488-labelled antibody on Tim-3 DO11.10 cells. (A flow cytometer gives signals particle by particle.)

In experiment [3] the target is T1, human Tim-3-Fc (R&D Systems). Put plainly: ELISA, human Tim-3-Fc coated, anti-human IgG F(ab')2-HRP detection. Background: In an ELISA, binding on a coated surface is turned into a signal by an enzyme label.
For experiment [4] the target is unchanged. Put plainly: flow cytometry, blocking of biotinylated hTIM-3-Fc binding to phosphatidylserine on camptothecin-treated DO11.10 cells.
The target in experiment [5] is T3, human Tim-3-IgV-Fc single arm antigen (SAG) (human).
T3 construct: Construct is only named; its build is not described; also called Tim-3 SAG; not shown: Fc part; second Fc arm of the single arm antigen; not described
T3 sequence (Q8TDQ0 whole entry, looked up): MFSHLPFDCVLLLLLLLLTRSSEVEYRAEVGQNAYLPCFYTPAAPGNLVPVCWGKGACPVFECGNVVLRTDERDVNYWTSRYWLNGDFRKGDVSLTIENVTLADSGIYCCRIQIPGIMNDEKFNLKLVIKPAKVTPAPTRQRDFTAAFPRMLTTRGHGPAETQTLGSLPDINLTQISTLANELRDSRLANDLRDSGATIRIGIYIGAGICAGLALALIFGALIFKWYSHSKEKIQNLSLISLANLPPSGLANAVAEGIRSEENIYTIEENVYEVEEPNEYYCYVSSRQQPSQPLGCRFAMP
Put plainly: SPR Biacore T100, antibody captured on Human Fab Binder, Tim-3 SAG as analyte, 1:1 Langmuir with mass transport. (In general: In SPR one partner is held on a chip, and binding of the other changes the refractive index at the surface.)

A further experiment addresses T4, hTim-3-IgV-FLAG (human, UniProt Q8TDQ0 22-130, density indicating glycosylation at Asn99).
T4 construct: Purified from 293HEK supernatant; also called hTim-3-FLAG; human Tim-3 IgV domain; not shown: FLAG tag
T4 sequence: T1 sequence
As to the kind of experiment: SPR Biacore T200, Fab captured, hTim-3-IgV-FLAG as analyte, HBS-EP, 25 C, 1:1 binding.

The target in the next experiment is human PD-1 on CHO cells (human, UniProt Q15116 25-288). Put plainly: flow cytometry, CHO cells with human PD-1 incubated with antibody 100 nM, then PD-L2-FITC; competitor PD-L2-FITC.
human PD-1 on CHO cells, sequence (Q15116 25-288 limits assumed): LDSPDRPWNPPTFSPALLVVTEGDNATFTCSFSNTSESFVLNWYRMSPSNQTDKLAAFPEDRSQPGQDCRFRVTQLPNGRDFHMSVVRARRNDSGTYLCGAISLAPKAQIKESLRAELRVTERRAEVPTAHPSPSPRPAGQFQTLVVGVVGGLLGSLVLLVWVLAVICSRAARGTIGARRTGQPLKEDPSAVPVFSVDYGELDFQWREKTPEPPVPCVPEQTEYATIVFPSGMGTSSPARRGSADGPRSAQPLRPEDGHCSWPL

B1: Antibody A (anti-Tim-3 Antibody) (antibody, human IgG1, kappa, V domains shown)
VH: EVQLLESGGGLVQPGGSLRLSCAASGFTFSSYYMSWVRQAPGKGLEWVSAISGSGGSTYYADSVKGRFTISRDNSKNTLYLQMNSLRAEDTAVYYCARYARTAFDLWGQGTLVTVSS
VL: DIVMTQSPSSLSASVGDGVTITCQASQDIYNYLNWYQQKPGKAPKLLIYAASSLQSGVPSRFSGSGSGTDFTLTISSLQPEDFATYYCQQANSFPPTFGQGTKLEIKR
notes: Full IgG; also called anti-human Tim-3
B1 showed a 50% inhibitory concentration (IC50) in experiment [1] of 5.6 nM. The same molecule gave a 50% effective concentration (EC50) in experiment [2] of 0.09 nM. Moreover, it took 0.0207 nM to reach a half-maximal effect in experiment [3] (EC50). In experiment [4], this molecule had an IC50 of 0.32 nM. Also, in experiment [5], binding was put at a Kd of 0.398 nM, the koff turned out to be 0.000927 s⁻¹ and the on-rate (kon) worked out at 2.33e+06 M⁻¹ s⁻¹.

B2: Antibody A-Fab (Fab, V domains shown)
VH: B1 VH
VL: B1 VL
notes: Made by clipping Antibody A with immobilized papain; the Fc part was not present in the assay; also called Fab for Antibody A
Consider B2, for which, in the experiment with hTim-3-IgV-FLAG, the affinity, expressed as Kd, was 7.92 nM; the koff came to 0.00286 s⁻¹; the kon amounted to 362000 M⁻¹ s⁻¹.

B3: Antibody D in IgG1 format (antibody, V domains shown)
VH: QVQLVQSGAEVKKPGSSVKVSCKASGGTFSSYAISWVRQAPGQGLEWMGLIIPMFDTAGYAQKFQGRVAITVDESTSTAYMELSSLRSEDTAVYYCARAEHSSTGTFDYWGQGTLVTVSS
VL: DIQMTQSPSSVSASVGDRVTITCRASQGISSWLAWYQQKPGKAPKLLISAASSLQSGVPSRFSGSGSGTDFTLTISSLQPEDFATYYCQQANHLPFTFGGGTKVEIK
notes: IgG1 format, expressed in yeast; also called Antibody D, in IgG1 format and expressed in yeast
Turning to B3, in the experiment with human PD-1 on CHO cells, the “MFI (PD-L2-FITC) in presence of the antibody” value amounted to 24700.

Values taken from patent US20190276534A1 (Eli Lilly, published 2019).
